Measurements from PMC11133340.

Biological target: PSII-ACPII monomer (one PSII core monomer with six ACPII subunits and CCPII-S) (Chroomonas placoidea (endogenous in C. placoidea T11))
Assay: cryo-EM structure; single-particle cryo-EM of the native PSII-ACPII supercomplex co-purified from C. placoidea thylakoids; 25 mM Hepes-KOH pH 7.5, 1 mM CaCl2, 0.012% α-DDM; C2 symmetry, 2.47 Å overall; local refinement of the peripheral ACPIIs to 2.84 Å

stoichiometry N: 2
Substance: PSII-ACPII monomer (one PSII core monomer with six ACPII subunits and CCPII-S) (from UniProt A0A222AI37 1-351; A0A222AIE3 1-509; A0A222AI36 1-461; A0A222AI74 1-84; A0A222AI51 1-42; A0A222AIE4 1-67; A0A222AI80 1-38; A0A222AI54 1-39; A0A222AIA0 1-45; A0A222AI58 1-38; A0A222AID2 1-32; A0A222AI61 1-39; A0A222AI96 1-62; A0A222AI35 1-163) (complex)
